Source: publication PMC4039619
Where two headings read alike, the source gives them in different places.

Key:
[1] = biological target: recombinant human IGF-II (human); experiment: ELISA
[2] = biological target: insulin from porcine pancreas (porcine); experiment: ELISA
[3] = biological target: human proinsulin (human); experiment: ELISA
[4] = biological target: insulin from porcine pancreas (porcine)

Sequence of human recombinant decorin protein core (P07585 31-359): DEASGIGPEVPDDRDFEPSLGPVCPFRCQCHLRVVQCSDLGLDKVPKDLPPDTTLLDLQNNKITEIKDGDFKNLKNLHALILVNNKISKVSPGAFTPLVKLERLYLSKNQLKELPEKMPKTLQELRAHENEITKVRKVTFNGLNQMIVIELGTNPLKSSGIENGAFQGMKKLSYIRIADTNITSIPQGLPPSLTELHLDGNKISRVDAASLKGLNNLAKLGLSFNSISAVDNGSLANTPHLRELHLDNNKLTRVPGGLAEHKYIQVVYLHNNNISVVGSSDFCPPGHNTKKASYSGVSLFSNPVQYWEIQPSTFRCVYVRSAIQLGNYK
Sequence of insulin from porcine pancreas (porcine) (P01315 25-54, chain 1 of 2): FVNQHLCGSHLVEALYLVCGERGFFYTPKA
Sequence of insulin from porcine pancreas (porcine) (P01315 88-108, chain 2 of 2): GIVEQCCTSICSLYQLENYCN
Sequence of decorin proteoglycan (P07585 31-359): as the sequence (P07585 31-359) above
Sequence of recombinant human IGF-II (human) (P01344 25-91): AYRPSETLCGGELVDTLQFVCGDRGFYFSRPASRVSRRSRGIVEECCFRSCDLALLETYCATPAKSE

Kd [1]	Kd [2]	Kd [3]	Kd [4]	Substance
1.5 nM	3.1 nM	9.3 nM		human recombinant decorin protein core (from UniProt P07585 31-359) (natural protein)
			13.4 nM	decorin proteoglycan (from UniProt P07585 31-359) (natural protein)
